Experimental data from publication PMC3438448.

Tests used:
[1] = target: microtubules (taxol-stabilized, α/β-tubulin) (UniProt P02554)
axonemal microtubules = test: single-molecule microtubule release assay (TIRF); as a6, perfused with 5 mM ATP in the presence of 800 nM Lis1; durations of attachment fitted by a one-phase exponential decay

Sequence of microtubules (taxol-stabilized, α/β-tubulin) (chain, as listed by the source, chain 1 of 2): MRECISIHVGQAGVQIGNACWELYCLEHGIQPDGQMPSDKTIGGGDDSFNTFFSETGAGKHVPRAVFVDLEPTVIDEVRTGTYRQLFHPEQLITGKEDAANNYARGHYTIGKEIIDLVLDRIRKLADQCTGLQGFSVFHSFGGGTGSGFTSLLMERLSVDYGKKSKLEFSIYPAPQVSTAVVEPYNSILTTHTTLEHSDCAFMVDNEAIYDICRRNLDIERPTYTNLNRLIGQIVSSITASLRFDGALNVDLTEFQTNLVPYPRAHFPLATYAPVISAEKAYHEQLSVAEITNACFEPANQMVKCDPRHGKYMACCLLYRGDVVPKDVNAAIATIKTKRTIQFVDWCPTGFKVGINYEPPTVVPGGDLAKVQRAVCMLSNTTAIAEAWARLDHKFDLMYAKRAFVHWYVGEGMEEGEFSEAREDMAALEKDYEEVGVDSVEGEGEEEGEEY
Sequence of microtubules (taxol-stabilized, α/β-tubulin) (P02554 whole entry, chain 2 of 2, the tested form may be a part): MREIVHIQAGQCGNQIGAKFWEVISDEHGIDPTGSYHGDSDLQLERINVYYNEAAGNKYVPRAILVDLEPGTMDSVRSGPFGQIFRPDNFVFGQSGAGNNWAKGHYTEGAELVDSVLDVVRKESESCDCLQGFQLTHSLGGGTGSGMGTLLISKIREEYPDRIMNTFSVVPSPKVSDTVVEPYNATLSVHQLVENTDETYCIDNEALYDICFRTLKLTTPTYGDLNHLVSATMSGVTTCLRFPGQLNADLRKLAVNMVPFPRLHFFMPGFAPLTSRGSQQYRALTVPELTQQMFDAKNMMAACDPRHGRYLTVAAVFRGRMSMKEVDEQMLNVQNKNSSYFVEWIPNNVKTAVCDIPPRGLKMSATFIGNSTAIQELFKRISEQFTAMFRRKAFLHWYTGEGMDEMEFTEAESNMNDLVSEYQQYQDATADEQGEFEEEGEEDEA

GST-dynein_(331 kDa), P36022 1-4092
Km(MT) of the microtubule-stimulated ATPase activity, with 140 nM Lis1 [1]: 0.2 µM | Km(MT) of the microtubule-stimulated ATPase activity, without Lis1 [1]: 0.09 µM

monomeric dynein_(331 kDa) (domain or fragment)
off-rate (decay constant) of microtubule attachments after ATP addition, with 800 nM Lis1 and 5 mM ATP (axonemal microtubules): 0.162 s⁻¹ | off-rate (decay constant) of rebinding events, with Lis1 and ATP (axonemal microtubules): 0.23 s⁻¹
